Measurements from the supplement of paper PMC7125110.
± gives the standard error. Fewer inactive variants are shown than the library holds.

B1: glmS ribozyme (parent)
chain: AUAAAAGCGCCAGAACUACAGAAAUGUAGUUGACGAGGAGGAGGUUUAUCGAAUUUUCGGCGGAUGCCUCCAAA

Tests used:
Conditions in all cases: with glucosamine-6-phosphate
glucosamine-6-phosphate [1] = variants of: B1; experiment: self-cleavage kobs at 40 uM GlcN6P; higher = faster cleavage; RNA array
Method in brief: (§1)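 kobs was derived by fitting per-tile medians to one- or two-exponential decays after normalising signals to baseline and to non-cleaving reference variants. Those signals came from barcoded ribozyme variants transcribed in situ by E. coli RNA polymerase on sequenced MiSeq chips, followed through a hybridised Cy3 probe at 37 °C and imaged over ~14 h. Glucosamine-6-phosphate (40 μM to 10 mM) in HEPES/KCl/Mg(OAc)2 buffer was flowed in. Weighted Michaelis–Menten fits across concentrations then gave kcat and KM.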

glucosamine-6-phosphate [2] = variants of: B1; experiment: self-cleavage kobs at 10000 uM GlcN6P; higher = faster cleavage; RNA array
Method in brief: as §1

glucosamine-6-phosphate [3] = variants of: B1; experiment: self-cleavage kobs at 160 uM GlcN6P; higher = faster cleavage; RNA array
Method in brief: as §1

glucosamine-6-phosphate [4] = variants of: B1; experiment: self-cleavage kobs at 640 uM GlcN6P; higher = faster cleavage; RNA array
Method in brief: as §1

glucosamine-6-phosphate [5] = variants of: B1; experiment: self-cleavage kobs at 2500 uM GlcN6P; higher = faster cleavage; RNA array
Method in brief: as §1

Row | Variant | self-cleavage kobs at 40 uM GlcN6P (glucosamine-6-phosphate [1]) [s⁻¹] | self-cleavage kobs at 10000 uM GlcN6P (glucosamine-6-phosphate [2]) [s⁻¹] | self-cleavage kobs at 160 uM GlcN6P (glucosamine-6-phosphate [3]) [s⁻¹] | self-cleavage kobs at 640 uM GlcN6P (glucosamine-6-phosphate [4]) [s⁻¹] | self-cleavage kobs at 2500 uM GlcN6P (glucosamine-6-phosphate [5]) [s⁻¹]
1 | U49A G51A U57A C58G | < 1e-05 | < 1e-05 | – | – | –
2 | G41A C58G | < 1e-05 | < 1e-05 | < 1e-05 | < 1e-05 | < 1e-05
3 | U46A C50G | < 1e-05 | < 1e-05 | – | – | < 1e-05
4 | A42U G63A | < 1e-05 | < 1e-05 | – | < 1e-05 | –
5 | A53U U54G C71A | 9.49e-05 ± 2.8e-05 | 0.00478 ± 0.0013 | – | – | –
6 | G41U A42U C70A | 0.000142 ± 2.3e-05 | 0.00204 ± 0.00044 | – | – | –
7 | G41C G44U | < 1e-05 | < 1e-05 | < 1e-05 | < 1e-05 | < 1e-05
8 | G41C G44A | < 1e-05 | < 1e-05 | < 1e-05 | < 1e-05 | –
9 | C50G C58A C68G C71U | 9.15e-05 ± 1.8e-05 | 0.00024 ± 5.2e-05 | – | – | –
10 | G41A U46G G51U | < 1e-05 | – | – | – | –
11 | G41A A64C | < 1e-05 | < 1e-05 | < 1e-05 | < 1e-05 | < 1e-05
12 | A53G G60U | < 1e-05 | – | < 1e-05 | < 1e-05 | –
13 | A52C G60A G66A | < 1e-05 | – | < 1e-05 | < 1e-05 | –
14 | U46A A48C | < 1e-05 | – | – | – | –
15 | U49C A52U | < 1e-05 | < 1e-05 | < 1e-05 | < 1e-05 | < 1e-05
16 | G41C C68G | < 1e-05 | < 1e-05 | < 1e-05 | < 1e-05 | < 1e-05
17 | C50A A64G C71U | < 1e-05 | – | – | – | –
18 | G44U U45C G63A | < 1e-05 | – | – | – | –
19 | G41U C50A | < 1e-05 | < 1e-05 | < 1e-05 | < 1e-05 | < 1e-05
20 | C50G G63A C70G | 0.000105 ± 2.6e-05 | 8.99e-05 ± 1.5e-05 | – | 0.000198 ± 4.3e-05 | 9.35e-05 ± 3e-05
21 | G51U G63C | < 1e-05 | < 1e-05 | – | < 1e-05 | < 1e-05
